These results are taken from publication PMC7528653 (Nucleic Acids Research, 2020).

Test [1] deals with T1, MSL1 (untagged, subunit of the DCCcore) (Drosophila melanogaster, UniProt P50535 1-1039).
T1 sequence: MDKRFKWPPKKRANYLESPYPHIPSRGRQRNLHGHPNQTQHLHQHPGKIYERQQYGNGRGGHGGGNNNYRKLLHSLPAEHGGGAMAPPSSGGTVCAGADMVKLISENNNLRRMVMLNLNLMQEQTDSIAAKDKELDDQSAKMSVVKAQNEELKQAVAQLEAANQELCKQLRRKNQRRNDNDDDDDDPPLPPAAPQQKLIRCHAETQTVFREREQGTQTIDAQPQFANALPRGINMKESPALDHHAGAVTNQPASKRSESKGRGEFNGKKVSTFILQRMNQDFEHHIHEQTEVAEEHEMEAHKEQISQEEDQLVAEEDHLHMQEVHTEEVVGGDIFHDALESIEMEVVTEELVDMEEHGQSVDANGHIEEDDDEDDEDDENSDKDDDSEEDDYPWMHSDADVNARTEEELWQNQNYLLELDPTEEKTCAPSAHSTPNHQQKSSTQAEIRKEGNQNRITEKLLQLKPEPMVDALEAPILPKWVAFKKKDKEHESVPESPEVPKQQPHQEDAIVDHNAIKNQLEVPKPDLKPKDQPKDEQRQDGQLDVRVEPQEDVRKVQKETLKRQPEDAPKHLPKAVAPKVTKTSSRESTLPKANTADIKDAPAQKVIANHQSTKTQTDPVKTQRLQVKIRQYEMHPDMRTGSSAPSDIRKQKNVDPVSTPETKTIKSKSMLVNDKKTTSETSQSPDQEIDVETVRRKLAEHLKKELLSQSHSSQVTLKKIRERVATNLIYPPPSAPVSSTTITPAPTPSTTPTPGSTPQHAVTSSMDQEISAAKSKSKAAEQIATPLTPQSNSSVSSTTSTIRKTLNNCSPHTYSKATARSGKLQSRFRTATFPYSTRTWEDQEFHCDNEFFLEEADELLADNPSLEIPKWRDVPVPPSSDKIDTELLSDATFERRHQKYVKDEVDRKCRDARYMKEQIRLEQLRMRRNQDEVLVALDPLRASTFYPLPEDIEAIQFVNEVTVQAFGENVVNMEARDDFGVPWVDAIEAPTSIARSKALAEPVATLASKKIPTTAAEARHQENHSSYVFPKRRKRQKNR
Put plainly: co-IP.

The target in test [2] is MLE-FLAG (maleless DExH helicase, wild-type) (Drosophila melanogaster, UniProt P24785 1-1293). Put plainly: co-IP.

B1: MSL3 with an N-terminal hexahistidine tag (natural protein)
chain: MTELRDETPLFHKGEIVLCYEPDKSKARVLYTSKVLNVFERRNEHGLRFYEYKIHFQGWRPSYDRCVRATVLLKDTEENRQLQRELAEAAKLQIRGDYSYKGTPDKPSAKKKRGGKAAHVEEPIVVPMDTGHLEAEHEMAPTPRAAGNRTRDNSGGKRKEKPPSGDGRLKGNRGRQTETFYNNAINDVSVYNHVPQEDRIMMRVSERLRELIEYDRNMIKVLGKQHALPARVPIVTIMENFVKQQAVELAISIKQDSSRARNTQSRNARMEREYDRVMSTVCMLKEVVDGLRIYFEFHVDDHLLYTEEKEYVHNYLTDDNMRNCSLILNKSYEYINPSGDTELIGLDGTPVVEGSGDTNGQIGVINIGGPEYEKQLQKCLLYIVTASGKNTAQAYERTSPYTAAYKLPVEMRGFLNETFKWRLLSAESPPEKSMVFGAPHLVRLMIKMPMFLNASPISNKKLEDLLPHLDAFINYLENHREWFDRENFVNSTALPQEDLQRELLDSLDGIAA
Take B1: in test [1], the binding result is “binds”.

B2: DCC DNA-binding module (MSL2-FLAG and MSL1 Δ865-1039) (complex)
chain 1: MAQTAYLKVTRIAMRSASNLSKRRVEELNSGLGELRQLLSCVVCCQLLVDPYSPKGKRCQHNVCRLCLRGKKHLFPSCTQCEGCSDFKTYEENRMMAAQLLCYKTLCVHLLHSALFGELAGMRPQVARELVPRIKLPPKTTQEFIREGSNISDTFDIFLPQPDLPFLKDMPTSLPAETPPTSAVTTPELPYDHHLNISDIEAEAAATAEQGHFSPLPLLPTGSRMGMLSHAGQIVIATESSESGFMDQAWTDQVDLSGTVSVSKYTNSGNNFAVSYVMPTSATTKFDPQELQIGQVVQMADSTQLAVLAAVEETVETSTQLTVLSTTVEETVETSTQLEVLTSAEEPNEISDQLANLQVEESDEALVEETVEEAEGTSIPSEVVAEHMEEDQHLDVHTSQSPTQTEMEEAVEEHVATKTQLGHVQTELQDAESLQKDFEDAKAAAEEAKEKEKDLHAISAELQKEDSDEPTLKRKRTRTLKASQAAKIEPVPSEVKTKVQSGKGALRRIRGKDKEEKVKPPKPKCRCGISGSSNTLTTCRNSRCPCYKSYNSCAGCHCVCCKNPHKEDYVESDEDDDLEDFEMPKDVPEPMTQSEEPVVAEPRQEENSMAPPDSSAPISLVPLNNLQQSQHPLVLVQNEKGEYQGFNIFQGSKPLDPVTVGFTIRVQLQHTDGFGSLPQYAYIMPTIDPPNPPAPSLSPPPPPAPDREVIEPPAKKFRTSRTRRGRANFSALDTVDELVSGGSRSNSAAGDRSSATDNAHSLFEEIMSGSDDL
chain 2: MDKRFKWPPKKRANYLESPYPHIPSRGRQRNLHGHPNQTQHLHQHPGKIYERQQYGNGRGGHGGGNNNYRKLLHSLPAEHGGGAMAPPSSGGTVCAGADMVKLISENNNLRRMVMLNLNLMQEQTDSIAAKDKELDDQSAKMSVVKAQNEELKQAVAQLEAANQELCKQLRRKNQRRNDNDDDDDDPPLPPAAPQQKLIRCHAETQTVFREREQGTQTIDAQPQFANALPRGINMKESPALDHHAGAVTNQPASKRSESKGRGEFNGKKVSTFILQRMNQDFEHHIHEQTEVAEEHEMEAHKEQISQEEDQLVAEEDHLHMQEVHTEEVVGGDIFHDALESIEMEVVTEELVDMEEHGQSVDANGHIEEDDDEDDEDDENSDKDDDSEEDDYPWMHSDADVNARTEEELWQNQNYLLELDPTEEKTCAPSAHSTPNHQQKSSTQAEIRKEGNQNRITEKLLQLKPEPMVDALEAPILPKWVAFKKKDKEHESVPESPEVPKQQPHQEDAIVDHNAIKNQLEVPKPDLKPKDQPKDEQRQDGQLDVRVEPQEDVRKVQKETLKRQPEDAPKHLPKAVAPKVTKTSSRESTLPKANTADIKDAPAQKVIANHQSTKTQTDPVKTQRLQVKIRQYEMHPDMRTGSSAPSDIRKQKNVDPVSTPETKTIKSKSMLVNDKKTTSETSQSPDQEIDVETVRRKLAEHLKKELLSQSHSSQVTLKKIRERVATNLIYPPPSAPVSSTTITPAPTPSTTPTPGSTPQHAVTSSMDQEISAAKSKSKAAEQIATPLTPQSNSSVSSTTSTIRKTLNNCSPHTYSKATARSGKLQSRFRTATFPYSTRTWEDQEFHCDNEFFLEEADELLADNP
As for B2, in test [2], the binding result is on record as “binds”.
